According to US20100260668A1 (published 2010):
Where “and” joins values, the source holds several entries; their conditions need not be identical. Identical values can stand only once.

Legend:
[1] = biological target: T1, VEGF (VEGF 1-165 aa, R&D Systems 293-VE-010) (UniProt P15692 27-191); assay: Direct bind ELISA, VEGF coated on plate; VEGF domain N-term., HC long/LC long
T1 construct: bought reagent; also called vascular endothelial growth factor

DLL4 = biological target: T2, DLL4 (human, UniProt Q9NR61 27-685); assay: flow cytometry on 293G-human DLL4 cells; DLL4 VD N-terminal
T2 construct: whole, on cells; also called human DLL4

VEGF = biological target: T3, VEGF (UniProt P15692 27-191, limits assumed); assay: direct bind ELISA, antigen on plate; reference antibody
T3 construct: Bought antigen coated on the ELISA plate; also called vascular endothelial growth factor

VEGF 1-165 aa = biological target: T4, VEGF 1-165 aa (UniProt P15692 27-191); assay: direct bind ELISA (ref Ab)
T4 construct: Bought antigen coated on the ELISA plate

[2] = biological target: T5, RON (MSP Receptor ECD-His tag) (UniProt Q04912 25-957, limits assumed); assay: Direct Bind ELISA, antigen on plate
T5 construct: extracellular domain; Bought reagent

RON = biological target: T6, RON (UniProt Q04912 25-1400, limits assumed); assay: flow cytometry on cells carrying the target, 2 ug/mL; C-terminal VD
T6 construct: whole, on cells; also called macrophage stimulating protein receptor tyrosine kinase; MSP receptor

PlGF = biological target: T7, PlGF (UniProt P49763-2 21-149, limits assumed); assay: direct bind ELISA, antigen on plate; reference antibody
T7 construct: Bought antigen coated on the ELISA plate; also called Placental GF; placental growth factor
T7 sequence (looked up): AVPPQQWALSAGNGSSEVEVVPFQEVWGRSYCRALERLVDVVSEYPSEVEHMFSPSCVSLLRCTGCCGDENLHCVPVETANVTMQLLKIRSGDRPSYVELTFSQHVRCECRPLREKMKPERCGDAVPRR

T4 sequence (P15692 other isoform, or with tags, fused parts or gaps limits assumed): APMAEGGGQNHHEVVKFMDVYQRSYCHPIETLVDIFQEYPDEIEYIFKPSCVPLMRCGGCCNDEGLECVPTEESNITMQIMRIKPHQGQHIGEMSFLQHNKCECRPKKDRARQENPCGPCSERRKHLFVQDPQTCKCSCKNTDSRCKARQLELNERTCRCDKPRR
T1 sequence (P15692 other isoform, or with tags, fused parts or gaps limits assumed): as above
T3 sequence (P15692 other isoform, or with tags, fused parts or gaps limits assumed): as above

B1: DVD498 (bispecific antibody, human IgG1, kappa)
heavy: not shown
light: DIQMTQSPSSLSASVGDRVTITCRASQVIRRSLAWYQQKPGKAPKLLIYAASNLASGVPSRFSGSGSGTDFTLTISSLQPEDFATYYCQQSNTSPLTFGQGTKVEIKRTVAAPSVFIFPPDIQMTQSSSYLSVSLGGRVTITCKASDHINNWLAWYQQKPGNAPRLLISGATSLETGVPSRFSGSGSGKDYTLSITSLQTEDVATYYCQQYWSIPLTFGAGTKLELKRTVAAPSVFIFPPSDEQLKSGTASVVCLLNNFYPREAKVQWKVDNALQSGNSQESVTEQDSKDSTYSLSSTLTLSKADYEKHKVYACEVTHQGLSSPVTKSFNRGEC
notes: DVD-Ig; N-term; AB071 (VEGF), C-term; AB072 (DLL4); HC linker long, LC linker long; also called DVD-Ig DVD498; DVD498H/DVD498L
- EC50 [1]: 30.6 nM

B2: DVD471 (bispecific antibody, human IgG1, kappa, L234A L235A)
heavy: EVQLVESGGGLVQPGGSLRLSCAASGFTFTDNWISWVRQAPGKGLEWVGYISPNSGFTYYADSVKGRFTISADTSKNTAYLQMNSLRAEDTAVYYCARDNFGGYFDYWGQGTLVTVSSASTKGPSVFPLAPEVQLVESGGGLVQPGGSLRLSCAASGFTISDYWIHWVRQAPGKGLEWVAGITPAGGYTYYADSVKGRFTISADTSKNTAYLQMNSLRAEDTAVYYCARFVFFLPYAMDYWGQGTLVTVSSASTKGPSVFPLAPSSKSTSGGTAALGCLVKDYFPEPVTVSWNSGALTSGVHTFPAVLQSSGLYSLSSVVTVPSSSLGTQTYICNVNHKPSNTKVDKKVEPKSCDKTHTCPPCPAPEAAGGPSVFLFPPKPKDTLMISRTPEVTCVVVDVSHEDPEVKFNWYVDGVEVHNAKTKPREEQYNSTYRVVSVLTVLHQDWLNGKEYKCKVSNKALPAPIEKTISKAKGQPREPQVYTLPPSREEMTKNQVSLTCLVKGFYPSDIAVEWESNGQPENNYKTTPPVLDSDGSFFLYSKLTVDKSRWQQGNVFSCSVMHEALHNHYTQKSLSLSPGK
light: DIQMTQSPSSLSASVGDRVTITCRASQDVSTAVAWYQQKPGKAPKLLIYSASFLYSGVPSRFSGSGSGTDFTLTISSLQPEDFATTYYCQQSYTGTVTFGQGTKVEIKRTVAAPSVFIFPPDIQMTQSPSSLSASVGDRVTITCRASQDVSTAVAWYQQKPGKAPKLLIYSASFLYSGVPSRFSGSGSGTDFTLTISSLQPEDFATYYCQQSYTTPPTFGQGTKVEIKRTVAAPSVFIFPPSDEQLKSGTASVVCLLNNFYPREAKVQWKVDNALQSGNSQESVTEQDSKDSTYSLSSTLTLSKADYEKHKVYACEVTHQGLSSPVTKSFNRGEC
notes: DVD-Ig; also called DLL4 and VEGF DVD-Ig, HC linker long, LC linker long
- EC50 (DLL4): 1.13 nM

B3: AB071 (antibody, human IgG1, kappa, L234A L235A, V domains shown)
VH: EVQLVESGGGLVQPGGSLRLSCAASGFTINASWIHWVRQAPGKGLEWVGAIYPYSGYTNYADSVKGRFTISADTSKNTAYLQMNSLRAEDTAVYYCARWGHSTSPWAMDYWGQGTLVTVSS
VL: DIQMTQSPSSLSASVGDRVTITCRASQVIRRSLAWYQQKPGKAPKLLIYAASNLASGVPSRFSGSGSGTDFTLTISSLQPEDFATYYCQQSNTSPLTFGQGTKVEIKR
notes: also called AB071VH; AB071VL
- EC50 (VEGF): 20.9 nM

B4: AB071 (antibody, human IgG1, kappa, L234A L235A, V domains shown)
VH: B3 VH
VL: B3 VL
notes: Vectors V7/V2
- EC50 (VEGF 1-165 aa): 40.4 nM and 80.4 nM and 79.5 nM

B5: AB005 (anti-RON (seq. 1) parent antibody) (antibody, IgG1, V domains shown)
VH: EVQLVQSGGGLVKPGGSLRLSCAASGFTFSSYAMHWVRQAPGKGLEWVAVISYDGSNKYYADSVKGRFTISRDNSKNTLYLQMNSLRAEDTAVYYCARFSGWPNNYYYYGMDVWGQGTTVTVSS
VL: DVVMTQSPLSLPVTPGEPASISCRSSQSLLHSNGFNYVDWYLQKPGQSPHLLIYFGSYRASGVPDRFSGSGSGTDFTLKISRVEAEDVGVYYCMQALQTPPWTFGQGTKVEIRR
notes: HC vector V1 (wild-type hIgG1 constant), LC vector V2 (kappa constant); also called AB005VH; AB005VL
- EC50 [2]: 0.26 nM and 0.21 nM

B6: DVD047 (bispecific antibody, human IgG1, kappa)
heavy: not shown
light: DIQMTQSPSSLSASVGDRVTITCSASQDISNYLNWYQQKPGKAPKVLIYFTSSLHSGVPSRFSGSGSGTDFTLTISSLQPEDFATYYCQQYSTVPWTFGQGTKVEIKRTVAAPDVVMTQSPLSLPVTPGEPASISCRSSQSLLHSNGFNYVDWYLQKPGQSPHLLIYFGSYRASGVPDRFSGSGSGTDFTLKISRVEAEDVGVYYCMQALQTPPWTFGQGTKVEIRRTVAAPSVFIFPPSDEQLKSGTASVVCLLNNFYPREAKVQWKVDNALQSGNSQESVTEQDSKDSTYSLSSTLTLSKADYEKHKVYACEVTHQGLSSPVTKSFNRGEC
notes: DVD-Ig; also called VEGF and RON DVD-Ig
- FACS Geometric Mean C-terminal (RON): 0.51

B7: AB047 (antibody, human IgG1, kappa, V domains shown)
VH: QVQLQQSGAELVKPGASVKISCKASGYTFTDYYINWVKLAPGQGLEWIGWIYPGSGNTKYNEKFKGKATLTIDTSSSTAYMQLSSLTSEDTAVYFCVRDSPFFDYWGQGTLLTVSS
VL: DIVLTQSPDSLAVSLGERVTMNCKSSQSLLNSGMRKSFLAWYQQKPGQSPKLLIYWASTRESGVPDRFTGSGSGTDFTLTISSVQAEDVAVYYCKQSYHLFTFGSGTKLEIKR
notes: also called AB047VH; AB047VL
- EC50 (PlGF): 0.13 nM and 0.14 nM
